From US20180155451A1 (published 2018) come the findings set out here.

To fix the notation:
B1: GpH7-A5/GpH7-B3 variant T335_15Y/GpL16-k0 (antibody, human IgG1, kappa)
heavy 1: not shown
heavy 2: not shown
light: DIVMTQSPLSLPVTPGEPASISCQASESLVHSNRNTYLHWYLQKPGQSPQLLIYKVSNRFSGVPDRFSGSGSGTDFTLKISRVEAEDVGVYYCSQNTHVPPTFGQGTKVEIERTVAAPSVFIFPPSDEQLKSGTASVVCLLNNFYPREAKVQWKVDNALQSGNSQESVTEQDSKDSTYSLSSTLTLSKADYEKHKVYACEVTHQGLSSPVTKSFNRGEC
notes: also called He Ab T335_15Y
B2: GpH7-TA4/GpH7-B3-15-02A/GpL16-k0 (antibody, human IgG1, kappa)
heavy 1: QVQLVQSGAEVKKPGASVTVSCKASGYTFTDYEMHWIRQPPGEGLEWIGAIDPKTGDTAYSESFQDRVTLTADKSTSTAYMELSSLTSEDTAVYYCTRFYSYTYWGQGTLVTVSSASTKGPSVFPLAPSSKSTSGGTAALGCLVKDYFPEPVTVSWNSGALTSGVHTFPAVLQSSGLYSLSSVVTVPSSSLGTQTYICNVNHKPSNTKVDKKVEPKSCDKTHTCPPCPAPEYLWGPSVFLFPPKPKDTLMISRTPEVTCVVVDVSHEDPEVKFNWYVDGVEVHNAKTKPREEQYNSTYRVVSVLTVLHQDWLNGKEYKCKVSNKALPAPIEKTISKAKGQPREPQVYTLPPSRKELTKNQVSLTCLVKGFYPSDIAVEWESNGQPENNYKTTPPVLDSDGSFFLYSKLTVDKSRWQQGNVFSCSVMHEALHNRYTQKSLSLSP
heavy 2: not shown
light: B1 light
notes: H1 L234Y and G236W; H2 S298A
B3: GpH7-A5/GpH7-B3-03-20W/GpL16-k0 (antibody, human IgG1, kappa)
heavy 1: not shown
heavy 2: not shown
light: B1 light
notes: also called He Ab G236_20W; GpH7-A5/GpH7-B3 variant G236_20W/GpL16-k0
B4: GpH7-A5/GpH7-B3 variant T335_20W/GpL16-k0 (antibody, human IgG1, kappa)
heavy 1: not shown
heavy 2: not shown
light: B1 light
notes: also called He Ab T335_20W
B5: GpH7-A5/GpH7-B3-15-02A/GpL16-k0 (antibody, human IgG1, kappa)
heavy 1: not shown
heavy 2: not shown
light: B1 light
notes: H2 S298A
B6: GpH7-TA5/GpH7-B3-03-20W/GpL16-k0 (antibody, human IgG1, kappa)
heavy 1: B2 heavy 1 with W234G, S296A
heavy 2: not shown
light: B1 light
notes: H1 L234Y and S298A; H2 G236W
B7: GpH7-TA2/GpH7-B3-01-15Y/GpL16-k0 (antibody, human IgG1, kappa)
heavy 1: B2 heavy 1 with Y232L
heavy 2: not shown
light: B1 light
notes: H1 G236W; H2 L234Y
B8: GpH7-A5/GpH7-B3 variant T335_19Q/GpL16-k0 (antibody, human IgG1, kappa)
heavy 1: not shown
heavy 2: not shown
light: B1 light
notes: also called He Ab T335_19Q
B9: GpH7-A5/GpH7-B16/GpL16-k0 (antibody, human IgG1, kappa)
heavy 1: not shown
heavy 2: not shown
light: B1 light
notes: also called He Ab L234_10E; GpH7-A5/GpH7-B3 variant L234_10E/GpL16-k0
B10: GpH7-A5/GpH7-B3-01-15Y/GpL16-k0 (antibody, human IgG1, kappa)
heavy 1: not shown
heavy 2: not shown
light: B1 light
notes: also called He Ab L234_15Y; GpH7-A5/GpH7-B3 variant L234_15Y/GpL16-k0
B11: GpH7-TA1/GpH7-B3-15-02A/GpL16-k0 (antibody, human IgG1, kappa)
heavy 1: B2 heavy 1 with W234G
heavy 2: not shown
light: B1 light
notes: H1 L234Y; H2 S298A
B12: GpH7-A5/GpH7-B17/GpL16-k0 (antibody, human IgG1, kappa)
heavy 1: not shown
heavy 2: not shown
light: B1 light
notes: also called He Ab L234_09D; GpH7-A5/GpH7-B3 variant L234_09D/GpL16-k0
B13: GpH7-A5/GpH7-B3 variant V266_08L/GpL16-k0 (antibody, human IgG1, kappa)
heavy 1: not shown
heavy 2: not shown
light: B1 light
notes: also called He Ab V266_08L
B14: GpH7-A5/GpH7-B3 variant T335_16H/GpL16-k0 (antibody, human IgG1, kappa)
heavy 1: not shown
heavy 2: not shown
light: B1 light
notes: also called He Ab T335_16H
B15: GpH7-TA3/GpH7-B3-03-20W/GpL16-k0 (antibody, human IgG1, kappa)
heavy 1: B2 heavy 1 with Y232L, W234G, S296A
heavy 2: not shown
light: B1 light
notes: H1 S298A; H2 G236W
B16: GpH7-TA4/GpH7-B3/GpL16-k0 (antibody, human IgG1, kappa)
heavy 1: B2 heavy 1
heavy 2: not shown
light: B1 light
notes: H1 L234Y and G236W

Substitutions are numbered along the chain they refer to. Numbers in names are those of the source.

The assay deals with T1, FcγRIIIa extracellular domain with C-terminal His tag (human, UniProt P08637 17-208).
T1 construct: extracellular domain; also called FcgRIIIa; 3a; not shown: His tag at the C terminus
T1 sequence (P08637 17-208): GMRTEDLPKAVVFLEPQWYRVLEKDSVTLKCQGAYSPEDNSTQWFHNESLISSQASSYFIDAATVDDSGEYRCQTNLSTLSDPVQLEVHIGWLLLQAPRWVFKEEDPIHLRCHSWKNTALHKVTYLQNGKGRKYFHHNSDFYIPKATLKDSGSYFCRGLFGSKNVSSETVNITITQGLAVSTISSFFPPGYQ
The assay can be described thus: SPR relative binding; GpH7-A5/GpH7-B3/GpL16-k0 = 100. The procedure:
Analysis of interaction between objective antibody and the FcγR was carried out using Biacore T100 (GE Healthcare). HBS-EP+ (GE Healthcare) was used as the running buffer, and the measurement temperature was set to 25° C. Chips produced by immobilizing the antigen peptide by the amine coupling method to a Series S Sencor Chip CM5 (GE Healthcare), or alternatively, chips produced by allowing preliminarily biotinylated antigen peptides to interact with and immobilize onto a Series S Sensor Chip SA (certified) (GE Healthcare) were used. Antibodies of interest were captured onto an antigen peptide-immobilized chip, and allowed to interact to each FcγR diluted with running buffer. To regenerate and repeatedly use the chip, the antibodies captured on the chip were washed off by reacting 10 mM glycine-HCl, pH 1.5.
The FcγR-binding activity of each antibody was assessed primarily using as an indicator the FcγR-binding activity and dissociation constant for FcγR.
Turning to B1, the He/Con_3a is 104 % of control.

For the molecule B2, the “FcγRIIIa BINDING ACTIVITY” value was 151 % of control.

In the case of B3, the “FcγRIIIa BINDING ACTIVITY” value was 140 % of control and the He/Con_3a is 135 % of control.

For B4, the He/Con_3a was 102 % of control.

Take B5: the “FcγRIIIa BINDING ACTIVITY” value is 163 % of control.

Consider B6, for which the “FcγRIIIa BINDING ACTIVITY” value is 97 % of control.

As for B7, the “FcγRIIIa BINDING ACTIVITY” value was 130 % of control.

Regarding B8, the He/Con_3a is 102 % of control.

B9: the He/Con_3a is 114 % of control.

As to B10, the “FcγRIIIa BINDING ACTIVITY” value was 131 % of control and the He/Con_3a is 130 % of control.

Turning to B11, the “FcγRIIIa BINDING ACTIVITY” value is 142 % of control.

For the molecule B12, the He/Con_3a is 117 % of control.

With B13, the He/Con_3a is 118 % of control.

On to B14, for which the He/Con_3a is 104 % of control.

With B15, the “FcγRIIIa BINDING ACTIVITY” value was 70 % of control.

Consider B16, for which the “FcγRIIIa BINDING ACTIVITY” value is 168 % of control.
